This note sets out measurements from article PMC5661634.

The term Kd denotes the free concentration of one partner at which half of the binding sites on the other are occupied at equilibrium, for simple one-to-one binding. Higher therefore signals weaker binding.

Assay [1] addresses mouse SNX5 PX domain (residues 20–180) (mouse) (UniProt Q9D8U8). Briefly: SPR; Biacore T100; PX5 immobilised on a CM5 chip, GST-IncE 109-132 WT or mutants flowed over; 25 °C; 20 mM Na HEPES pH 7.5, 200 mM NaCl, 0.005% Triton-X100; 1:1 steady state analysis. In general terms: Surface plasmon resonance follows binding to a sensor surface in real time, without labels.
Assay [2] shares this target. The experiment in a line: SPR; Biacore T100; PX5 immobilised on a CM5 chip, IncE 109-132 peptide flowed over (33 nM-2.7 uM); 25 °C; 20 mM Na HEPES pH 7.5, 200 mM NaCl, 0.005% Triton-X100; 1:1 fitting model.

Chain of UniProt Q9D8U8 (Q9D8U8 20-180): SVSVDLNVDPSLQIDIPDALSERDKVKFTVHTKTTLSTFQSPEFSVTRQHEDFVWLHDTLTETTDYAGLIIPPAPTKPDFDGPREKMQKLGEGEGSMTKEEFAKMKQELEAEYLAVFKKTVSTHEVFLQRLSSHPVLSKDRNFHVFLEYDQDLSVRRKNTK

“GST-IncE^109–132 K118A (domain or fragment)” returned a Kd in assay [1] of 0.79 µM.
Take “GST-IncE^109–132 V127A (domain or fragment)”: in assay [1], the Kd worked out at 0.98 µM.
In assay [1], “GST-IncE^109–132 WT (domain or fragment)” yielded a Kd of 0.39 µM.
With IncE^109–132 peptide, the Kd in assay [2] amounted to 0.54 µM.
